# Source: publication PMC12977500, “Mechanistic insights into SteAB regulation of cell wall hydrolase RipA in Mycobacterium tuberculosis” (mBio, 2026)
# What was measured:
# [1] = target: T1, MtSteB△TM (soluble M. tuberculosis SteB devoid of its TM domain, residues 38–314) (Mycobacterium tuberculosis, UniProt P9WJ83 38-314); assay: BLI; biotinylated MtRipACC immobilised on streptavidin biosensors; Octet-Red384, 25°C; 25 mM HEPES pH 7.5, 150 mM NaCl, 5% glycerol, 1 mg/mL BSA, 0.05% Tween 20; MtSteB 200–3.125 μM or MtRipACAT 80–1.25 μM; steady-state signal, one-site binding model; apparent Kd; details: both partners purified
# T1 construct: Homodimer in both crystal structures; also called MctB; Rv1698; not shown: His6, N-terminal, cleaved; SUMO, N-terminal, cleaved
# [2] = target: the molecule itself; assay: SEC-SLS; SEC with triple detection (UV, refractometer, SLS 7° and 90°, viscometer), Superdex 75 Increase 10/300 GL, 25 mM Hepes pH 7.5, 150 mM NaCl, 20°C; sample 1–5 mg/mL
# T1 sequence (P9WJ83 38-314): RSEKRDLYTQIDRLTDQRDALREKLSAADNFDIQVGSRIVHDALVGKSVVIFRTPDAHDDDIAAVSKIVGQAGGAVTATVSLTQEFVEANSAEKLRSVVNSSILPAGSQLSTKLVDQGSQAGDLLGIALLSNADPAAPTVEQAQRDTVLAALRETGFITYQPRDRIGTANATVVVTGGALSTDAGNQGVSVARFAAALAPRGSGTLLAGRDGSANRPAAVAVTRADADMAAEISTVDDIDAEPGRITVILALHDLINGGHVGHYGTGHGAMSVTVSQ
Binder,Kd [1] [µM],stoichiometry N [2]
"MtRipACC (coiled-coil domain of M. tuberculosis RipA, residues 40–240) (domain or fragment, biotin (EZ-Link NHS-PEG4-Biotin, 20 molar excess) in the BLI assays only, Biotinylated and immobilised on streptavidin sensors for BLI; not biotinylated in the crystal of the complex; also called RipA coiled-coil domain; CC domain of RipA; not shown: His6, N-terminal, cleaved; SUMO, N-terminal, cleaved) DPQTDTIAALIADVAKANQRLQDLSDEVQAEQESVNKAMVDVETARDNAAAAEDDLEVSQRAVKDANAAIAAAQHRFDTFAAATYMNGPSVSYLSASSPDEIIATVTAAKTLSASSQAVMANLQRARTERVNTESAARLAKQKADKAAADAKASQDAAVAALTETRRKFDEQREEVQRLAAERDAAQARLQAARLVAWSSE",42.6 ± 4.4,
"MtSteA△TM (truncated soluble construct of M. tuberculosis SteA, residues 12–344) (domain or fragment, Dimer in solution and in the crystal; also called Rv1697; not shown: His6, N-terminal, cleaved; SUMO, N-terminal, cleaved) SRPGLIGIARVDRNIDRLLRRVCPGDIVVLDVLDLDRITADALVEAEIAAVVNASSSVSGRYPNLGPEVLVTNGVTLIDETGPEIFKKVKDGAKVRLYEGGVYAGDRRLIRGTERTDHDIADLMREAKSGLVAHLEAFAGNTIEFIRSESPLLIDGIGIPDVDVDLRRRHVVIVADEPSGPDDLKSLKPFIKEYQPVLVGVGTGADVLRKAGYRPQLIVGDPDQISTEVLKCGAQVVLPADADGHAPGLERIQDLGVGAMTFPAAGSATDLALLLADHHGAALLVTAGHAANIETFFDRTRVQSNPSTFLTRLRVGEKLVDAKAVATLYRNHI",,2
